The values below come from patent publication US20230000950A1, “COMPOSITION COMPRISING GLUCAGON AND GLP-1 AND GIP RECEPTOR DUAL AGONIST AND THERAPEUTIC USE OF SAME” (HANMI PHARM. CO., LTD., priority 2019, published 2023).

Positions of bridges follow the written chain, without caps; N, C: chain ends. Non-standard residues stand in square brackets, D forms with d. No end group written: not given here. Aib = CC(C)(N)C(=O)O

For the experiment, the target named is human glucagon receptor (human, UniProt P47871 26-477). Briefly: cell-based or functional assay.
human glucagon receptor, sequence (P47871 26-477): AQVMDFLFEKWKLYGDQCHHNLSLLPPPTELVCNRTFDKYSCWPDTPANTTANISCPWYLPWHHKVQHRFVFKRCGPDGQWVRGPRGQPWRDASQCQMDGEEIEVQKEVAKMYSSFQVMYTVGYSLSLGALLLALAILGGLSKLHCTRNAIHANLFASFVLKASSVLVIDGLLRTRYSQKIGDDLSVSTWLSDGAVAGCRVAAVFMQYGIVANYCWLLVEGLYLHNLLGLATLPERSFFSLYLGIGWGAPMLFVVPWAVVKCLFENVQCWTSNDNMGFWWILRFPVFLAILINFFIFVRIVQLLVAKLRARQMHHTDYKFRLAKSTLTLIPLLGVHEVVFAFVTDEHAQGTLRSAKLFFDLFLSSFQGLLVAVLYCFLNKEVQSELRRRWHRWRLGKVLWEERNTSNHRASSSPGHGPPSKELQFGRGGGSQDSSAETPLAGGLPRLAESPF

B1: glucagon derivative of SEQ ID NO: 20 (peptide)
peptide: Y[Aib]QGTFTSDYSKYLDECRAKEFVQWLMNT
modifications: lactam 16-20
With B1, the “In vitro activity (relative activity to SEQ ID NO: 1, %), cAMP assay, from EC50” value came out at 300%.

B2: glucagon derivative of SEQ ID NO: 9 (peptide)
peptide: Y[Aib]QGTFTSDYSKYLDSCDAQDFVVWLINT
For the molecule B2, the “In vitro activity (relative activity to SEQ ID NO: 1, %), cAMP assay, from EC50” value is under 0.1%.

B3: glucagon derivative of SEQ ID NO: 10 (peptide)
peptide: Y[Aib]QGTFTSDYSKYLDSCDADDFVVWLINT
With B3, the “In vitro activity (relative activity to SEQ ID NO: 1, %), cAMP assay, from EC50” value was under 0.1%.

B4: glucagon derivative of SEQ ID NO: 16 (peptide)
peptide: Y[Aib]QGTFTSDYSKYLDCRRAQVFVQWLMRT
Turning to B4, the “In vitro activity (relative activity to SEQ ID NO: 1, %), cAMP assay, from EC50” value was found to be 4.2%.

B5: glucagon derivative of SEQ ID NO: 24 (peptide)
peptide: Y[Aib]QGTFTSDYSKCLDEKRAKEFVQWLMNT
modifications: lactam 16-20
Turning to B5, the “In vitro activity (relative activity to SEQ ID NO: 1, %), cAMP assay, from EC50” value came to 58%.

B6: glucagon derivative of SEQ ID NO: 26 (peptide)
peptide: W[Aib]QGTFTSDYSKYLDECRAKDFVQWLMNT
modifications: lactam 16-20
For the molecule B6, the “In vitro activity (relative activity to SEQ ID NO: 1, %), cAMP assay, from EC50” value is 1%.

B7: glucagon derivative of SEQ ID NO: 19 (peptide)
peptide: Y[Aib]QGTFTSDYSKYLCEKRAKEFVQWLMNT
modifications: lactam 16-20
For B7, the “In vitro activity (relative activity to SEQ ID NO: 1, %), cAMP assay, from EC50” value was 12.1%.

B8: glucagon derivative of SEQ ID NO: 27 (peptide)
peptide: Y[Aib]QGTFVSDYSKYLDECRAKDFVQWLMNT
modifications: lactam 16-20
As for B8, the “In vitro activity (relative activity to SEQ ID NO: 1, %), cAMP assay, from EC50” value came to 93.6%.

B9: glucagon derivative of SEQ ID NO: 14 (peptide)
peptide: Y[Aib]QGTFTSDYSKYLDCKRAKEFVQWLMNT
B9: the “In vitro activity (relative activity to SEQ ID NO: 1, %), cAMP assay, from EC50” value is 18.1%.

B10: glucagon derivative of SEQ ID NO: 18 (peptide)
peptide: Y[Aib]QGTFTSDYSKYLDSRRACDFRLWLMNT
As to B10, the “In vitro activity (relative activity to SEQ ID NO: 1, %), cAMP assay, from EC50” value is under 0.1%.

B11: glucagon derivative of SEQ ID NO: 13 (peptide)
peptide: Y[Aib]QGTFTSDYSCYLDSRRAQDFVQWLMNT
For the molecule B11, the “In vitro activity (relative activity to SEQ ID NO: 1, %), cAMP assay, from EC50” value turned out to be 5.2%.

B12: glucagon derivative of SEQ ID NO: 23 (peptide)
peptide: Y[Aib]QGTFTSDYSKYCDEKRAKEFVQWLMNT
modifications: lactam 16-20
In the case of B12, the “In vitro activity (relative activity to SEQ ID NO: 1, %), cAMP assay, from EC50” value stood at 76.8%.

B13: glucagon derivative of SEQ ID NO: 21 (peptide)
peptide: Y[Aib]QGTFTSDYSKYLDEKCAKEFVQWLMNT
modifications: lactam 16-20
In the case of B13, the “In vitro activity (relative activity to SEQ ID NO: 1, %), cAMP assay, from EC50” value is 57.8%.

B14: glucagon derivative of SEQ ID NO: 11 (peptide)
peptide: Y[Aib]QGTFTSDYSKYLDEKCAKEFVQWLMNT
For B14, the “In vitro activity (relative activity to SEQ ID NO: 1, %), cAMP assay, from EC50” value is 4.6%.

B15: glucagon derivative of SEQ ID NO: 25 (peptide)
peptide: Y[Aib]QGTFTSDYSKYLDEKRAKCFVQWLMNT
modifications: lactam 16-20
On to B15, for which the “In vitro activity (relative activity to SEQ ID NO: 1, %), cAMP assay, from EC50” value is 46.9%.

B16: glucagon derivative of SEQ ID NO: 22 (peptide)
peptide: Y[Aib]QGTFTSDYSKYLDEKRCKEFVQWLMNT
modifications: lactam 16-20
In the case of B16, the “In vitro activity (relative activity to SEQ ID NO: 1, %), cAMP assay, from EC50” value was determined as 148%.

B17: glucagon derivative of SEQ ID NO: 17 (peptide)
peptide: Y[Aib]QGTFTSDYSKYLDCVRAQDFVQWLMRT
As for B17, the “In vitro activity (relative activity to SEQ ID NO: 1, %), cAMP assay, from EC50” value was 23.2%.

B18: glucagon derivative of SEQ ID NO: 12 (peptide)
peptide: Y[Aib]QGTFTSDYSKYLDEKRAKEFVQWLMNTC
modifications: lactam 16-20
In the case of B18, the “In vitro activity (relative activity to SEQ ID NO: 1, %), cAMP assay, from EC50” value came out at 56.3%.
